Data taken from patent publication US20130296247A1.

Experiments:
Experiment in all cases: cell-based or functional assay
[1] = target: human Nav1.7 sodium channel alpha subunit (human) (UniProt Q15858)
[2] = target: Nav1.2 sodium channel (rBIIa) (UniProt P04775)
[3] = target: Nav1.2 sodium channel (rBIIa), P04775

Chain of human Nav1.7 sodium channel alpha subunit (human) (Q15858 whole entry): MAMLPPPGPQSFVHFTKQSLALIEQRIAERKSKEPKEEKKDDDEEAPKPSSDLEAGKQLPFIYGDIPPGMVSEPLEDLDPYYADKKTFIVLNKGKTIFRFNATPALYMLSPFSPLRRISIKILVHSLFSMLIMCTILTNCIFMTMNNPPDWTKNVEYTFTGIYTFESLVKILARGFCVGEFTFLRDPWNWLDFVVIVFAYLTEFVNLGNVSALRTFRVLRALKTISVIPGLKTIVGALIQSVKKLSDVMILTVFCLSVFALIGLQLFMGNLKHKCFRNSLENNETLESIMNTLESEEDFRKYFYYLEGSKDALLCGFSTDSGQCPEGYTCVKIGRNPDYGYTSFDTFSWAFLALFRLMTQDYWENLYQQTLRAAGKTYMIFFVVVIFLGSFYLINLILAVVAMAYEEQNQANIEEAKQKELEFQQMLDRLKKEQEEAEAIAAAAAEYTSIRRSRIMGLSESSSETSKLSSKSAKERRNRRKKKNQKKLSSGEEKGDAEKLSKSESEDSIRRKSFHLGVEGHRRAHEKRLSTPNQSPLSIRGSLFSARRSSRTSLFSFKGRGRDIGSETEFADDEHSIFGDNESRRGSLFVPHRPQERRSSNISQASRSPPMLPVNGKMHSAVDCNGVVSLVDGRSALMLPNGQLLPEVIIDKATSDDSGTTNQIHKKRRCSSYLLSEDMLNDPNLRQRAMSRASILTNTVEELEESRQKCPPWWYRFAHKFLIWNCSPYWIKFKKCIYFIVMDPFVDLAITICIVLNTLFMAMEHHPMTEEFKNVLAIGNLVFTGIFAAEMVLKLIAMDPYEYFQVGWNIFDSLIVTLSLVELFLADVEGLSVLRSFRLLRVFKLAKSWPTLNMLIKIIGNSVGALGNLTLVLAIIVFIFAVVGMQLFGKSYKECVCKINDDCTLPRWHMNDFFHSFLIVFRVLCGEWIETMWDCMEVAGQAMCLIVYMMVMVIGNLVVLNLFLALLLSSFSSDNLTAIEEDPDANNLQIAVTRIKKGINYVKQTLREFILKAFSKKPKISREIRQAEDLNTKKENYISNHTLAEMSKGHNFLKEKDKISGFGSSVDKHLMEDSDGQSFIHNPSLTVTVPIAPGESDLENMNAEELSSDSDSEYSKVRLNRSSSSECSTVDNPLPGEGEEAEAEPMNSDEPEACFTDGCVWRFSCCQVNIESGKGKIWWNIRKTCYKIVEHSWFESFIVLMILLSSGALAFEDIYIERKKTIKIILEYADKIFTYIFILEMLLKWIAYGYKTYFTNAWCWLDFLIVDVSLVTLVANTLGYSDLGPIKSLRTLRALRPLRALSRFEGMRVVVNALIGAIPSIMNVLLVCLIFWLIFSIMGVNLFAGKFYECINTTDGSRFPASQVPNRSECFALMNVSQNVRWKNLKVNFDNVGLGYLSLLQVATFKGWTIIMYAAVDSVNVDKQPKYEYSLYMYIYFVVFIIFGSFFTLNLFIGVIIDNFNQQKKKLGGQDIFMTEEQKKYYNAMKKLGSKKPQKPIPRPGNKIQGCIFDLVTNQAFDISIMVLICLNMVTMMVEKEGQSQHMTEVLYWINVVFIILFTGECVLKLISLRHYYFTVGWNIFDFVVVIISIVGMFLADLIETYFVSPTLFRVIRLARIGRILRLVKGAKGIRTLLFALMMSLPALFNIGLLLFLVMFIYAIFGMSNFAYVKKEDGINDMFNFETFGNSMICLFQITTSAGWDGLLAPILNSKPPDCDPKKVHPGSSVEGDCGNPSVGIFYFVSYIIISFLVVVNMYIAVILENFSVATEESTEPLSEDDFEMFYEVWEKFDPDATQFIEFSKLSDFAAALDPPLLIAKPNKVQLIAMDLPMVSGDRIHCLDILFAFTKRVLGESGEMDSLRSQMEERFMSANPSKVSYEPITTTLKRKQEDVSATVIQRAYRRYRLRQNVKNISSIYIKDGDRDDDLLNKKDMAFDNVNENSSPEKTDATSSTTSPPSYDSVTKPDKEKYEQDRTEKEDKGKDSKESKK

Molecule | IC50 Nav1.7 [1] [nM] | IC50 Nav1.2 [2] [nM] | IC50 Nav1.2 [3] [nM]
GrTx I (peptide) | 1010 | 2690 | 
GsAF I (peptide) | 249 | 255 | 
GsAF II (peptide) | 70 | 410 | 
GsMTx II/PaTX II (peptide) | 260 | 2700 | 
JzTx V (peptide) | 14 | 157 | 
JzTx XII (peptide) |  | 73900 | 
Phrixotoxin I (peptide) |  | 5000 | 
VsTx II (peptide) | 9260 | 42400 | 
YCQKWMWTCDSERKCCEGMVCRLWCKKKLW (modifications not checked) [peptide of SEQ ID NO: 2] |  |  | 8
